Usually Kd stands for the constant that tells how readily two partners part at equilibrium. A low value points to a tighter complex.

Data on three molecules can be found in publication PMC10393071 (2023).

For experiment [1], the target named is T1, BMPR-1A (aortic SMC, BMPR-1B siRNA) (Mus musculus, UniProt P36895).
T1 chain: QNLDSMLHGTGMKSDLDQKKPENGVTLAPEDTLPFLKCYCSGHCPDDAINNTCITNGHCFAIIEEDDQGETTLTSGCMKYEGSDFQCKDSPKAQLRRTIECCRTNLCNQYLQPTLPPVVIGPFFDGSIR
In words: FITC-ligand cell membrane binding, Scatchard.

Experiment [2] deals with T2, BMPR-1B (aortic SMC, BMPR-1A siRNA) (Mus musculus, UniProt P36898).
T2 chain: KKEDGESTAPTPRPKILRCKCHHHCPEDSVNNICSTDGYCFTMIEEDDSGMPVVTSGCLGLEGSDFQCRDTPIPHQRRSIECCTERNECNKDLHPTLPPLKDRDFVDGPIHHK
In words: FITC-ligand cell membrane binding, Scatchard.

The target of experiment [3] is T3, BMPR-1A/BMPR-1B (aortic SMC) (Mus musculus, UniProt P36895).
T3 chain 1: T1 chain
T3 chain 2: T2 chain
In words: FITC-ligand cell membrane binding, Scatchard.

A further experiment has as its target T4, BMPR-2 (Mus musculus, UniProt O35607).
T4 chain: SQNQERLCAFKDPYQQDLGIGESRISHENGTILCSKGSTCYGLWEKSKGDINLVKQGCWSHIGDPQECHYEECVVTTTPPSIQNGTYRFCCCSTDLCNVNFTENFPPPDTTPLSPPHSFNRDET
In words: FITC-ligand binding to transfected 293T, Scatchard.

For the next experiment, the target named is T5, BMPR-1A/BMPR-1B (Mus musculus, UniProt P36895).
T5 chain 1: T1 chain
T5 chain 2: T2 chain
In words: FITC-ligand binding to transfected 293T, Scatchard.

The target in the next experiment is T6, BMPR-1A (Mus musculus, UniProt P36895).
T6 chain: T1 chain
In words: FITC-ligand binding to transfected 293T, Scatchard.

The target of another experiment is T7, BMPR-1B (Mus musculus, UniProt P36898).
T7 chain: T2 chain
In words: FITC-ligand binding to transfected 293T, Scatchard.

In experiment [4] the target is T8, BMPR-1A/BMPR-1B (aortic SMC) (Homo sapiens, UniProt P36894).
T8 chain 1: T1 chain with L16S, P21S, T74A
T8 chain 2: T2 chain with I16V, M51L, D102N, K113R
In words: FITC-ligand cell membrane binding, Scatchard.

Positions count from the first letter of the chain named.

B1: mEar1 (protein)
chain: LGQTPSQKFAIQHINNNTNLQCNVEMMRINRARRTCKGLNTFLHTSFANAVGVCGNPSGLCSDKRSQNCHNSSSRVHITVCNITSRATNYTQCRYQSRRSLEYYTVACDPRTPQDSPMYPVVPVHLDGTF
Take B1: the dissociation constant (Kd) in experiment [1] turned out to be 9.14 nM; in experiment [2] it was 11.1 nM; in experiment [3], 15.8 nM; in the experiment with BMPR-2 it was 6.09 nM; with BMPR-1A/BMPR-1B it was 15.5 nM; with BMPR-1A, 10.6 nM. This molecule had a Kd with BMPR-1B of 9.45 nM.

B2: EDN (protein)
chain: KPPQFTWAQWFETQHINMTSQQCTNAMQVINNYQRRCKNQNTFLLTTFANVVNVCGNPNMTCPSNKTRKNCHHSGSQVPLIHCNLTTPSPQNISNCRYAQTPANMFYIVACDNRDQRRDPPQYPVVPVHLDRII
B2 registered a Kd in experiment [4] of 11.6 nM. This lies in the double-digit nanomolar range.

B3: ECP (protein)
chain: RPPQFTRAQWFAIQHISLNPPRCTIAMRAINNYRWRCKNQNTFLRTTFANVVNVCGNQSIRCPHNRTLNNCHRSRFRVPLLHCDLINPGAQNISNCTYADRPGRRFYVVACDNRDPRDSPRYPVVPVHLDTTI
Molecule B3 showed an equilibrium dissociation constant (Kd) in experiment [4] of 14.9 nM. This Kd and that of the molecule before are within 1.5-fold of each other.
